Test results: publication PMC3936774
Read-outs that look alike come from different tables or passages of the source.

Legend:
[1] = target: Ec Hfq Q33W (Escherichia coli, UniProt P0A6X3 1-102, Q33W); assay: Trp fluorescence quenching
[2] = target: T1, Ec Hfq Y83W (Escherichia coli, UniProt P0A6X3 1-102, Y83W); assay: Trp fluorescence quenching
[3] = target: T2, Ec Hfq G77W (Escherichia coli, UniProt P0A6X3 1-102, G77W); assay: Trp fluorescence quenching
[4] = target: T3, Ec Hfq F39W (Escherichia coli, UniProt P0A6X3 1-102, F39W); assay: Trp fluorescence quenching
[5] = target: Ec Hfq K31W (Escherichia coli, UniProt P0A6X3 1-102, K31W); assay: fluorescence polarization
[6] = target: T1, Ec Hfq Y83W; assay: fluorescence polarization
[7] = target: Ec Hfq Q95W (Escherichia coli, UniProt P0A6X3 1-102, Q95W); assay: fluorescence polarization
[8] = target: T2, Ec Hfq G77W; assay: fluorescence polarization
[9] = target: T4, Ec Hfq R17W (Escherichia coli, UniProt P0A6X3 1-102, R17W); assay: fluorescence polarization
[10] = target: T5, Ec Hfq F11W (Escherichia coli, UniProt P0A6X3 1-102, F11W); assay: fluorescence polarization
[11] = target: T6, Ec Hfq F42W (Escherichia coli, UniProt P0A6X3 1-102, F42W); assay: fluorescence polarization
[12] = target: T3, Ec Hfq F39W; assay: fluorescence polarization
[13] = target: T7, Lm Hfq F43W (Listeria monocytogenes, UniProt Q92C58 1-77, F43W); assay: Trp fluorescence quenching
T7 sequence: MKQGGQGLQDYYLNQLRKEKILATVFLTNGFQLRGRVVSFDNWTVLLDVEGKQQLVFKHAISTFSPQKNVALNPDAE

[14] = target: T6, Ec Hfq F42W; assay: Trp fluorescence quenching
[15] = target: T5, Ec Hfq F11W; assay: Trp fluorescence quenching
[16] = target: Ec Hfq Y25W (Escherichia coli, UniProt P0A6X3 1-102, Y25W); assay: Trp fluorescence quenching
[17] = target: Sa Hfq Q31W (Staphylococcus aureus, UniProt A0A0H3JV59 1-77, Q31W); assay: Trp fluorescence quenching
[18] = target: Sa Hfq F25W (Staphylococcus aureus, UniProt A0A0H3JV59 1-77, F25W); assay: Trp fluorescence quenching
[19] = target: T1, Ec Hfq Y83W; assay: Trp fluorescence quenching; remark: listed apart in the source
[20] = target: Hfq WT (Escherichia coli, UniProt P0A6X3 1-102); assay: fluorescence polarization
[21] = target: T4, Ec Hfq R17W; assay: Trp fluorescence quenching

AUUUUUUCAGAAUCGAAAGGUUCA (structured_RNA) [hfq mRNA site A 24-mer]
binding result [1]: binds | binding result [2]: binds | binding result [3]: binds | binding result [4]: binds

AAAAAAAAAAAAAAA (ssRNA) [A15 (fluorescein)]
Kd [5]: 1.4 ± 0.5 nM | Kd [6]: 7.4 ± 2.8 nM | Kd [7]: 2.6 ± 1.1 nM | Kd [8]: 2.9 ± 1.7 nM | Kd [9]: 3.7 ± 1.5 nM | Kd [10]: 7.1 ± 0.6 nM | Kd [11]: 0.28 ± 0.09 nM | Kd [12]: 0.59 ± 0.35 nM

GUGUGUG (ssRNA) [(GU)3G]
binding result [13]: binds

UUUUUU (ssRNA) [U6]
binding result [13]: binds | binding result [14]: binds

AAGAAGAAGAAGAAG (ssRNA) [(AAG)5]
binding result [1]: binds | binding result [15]: binds

GCAUAUAAGGAAAAGAGAGAAUGG (ssRNA) [hfq mRNA site B 24-mer]
binding result [1]: binds | binding result [2]: binds | binding result [15]: binds | binding result [16]: binds | binding result [14]: binds | binding result [4]: binds

ACACACA (ssRNA) [(AC)3A]
binding result [17]: binds | binding result [18]: binds

GGAGGAGGAGGAGGA (ssRNA) [(GGA)5]
binding result [14]: binds | binding result [19]: binds

AUAUAUA (ssRNA) [(AU)3A]
binding result [17]: binds | binding result [18]: binds | binding result [13]: binds

UUUUUUUUUUUUUUUU (ssRNA) [U16 (fluorescein)]
Kd [20]: 6.6 nM

AAAAAAAAAAAAAAA (ssRNA) [A15]
binding result [17]: binds | binding result [18]: binds | binding result [1]: binds | binding result [16]: binds

B1: hfq 5'-UTR (64 nt) (structured_RNA)
RNA: GGAUUUUUUCAGAAUCGAAAGGUUCAAAGUACAAAUAAGCAUAUAAGGAAAAGAGAGAAUGGGAUC
binding result [1]: binds | binding result [21]: binds | binding result [14]: binds
